Earlier results, collected in PMC3347567.

Molecular target: PEDF-R (Homo sapiens) (UniProt Q96AD5)
Chain of UniProt Q96AD5 (Q96AD5 whole entry): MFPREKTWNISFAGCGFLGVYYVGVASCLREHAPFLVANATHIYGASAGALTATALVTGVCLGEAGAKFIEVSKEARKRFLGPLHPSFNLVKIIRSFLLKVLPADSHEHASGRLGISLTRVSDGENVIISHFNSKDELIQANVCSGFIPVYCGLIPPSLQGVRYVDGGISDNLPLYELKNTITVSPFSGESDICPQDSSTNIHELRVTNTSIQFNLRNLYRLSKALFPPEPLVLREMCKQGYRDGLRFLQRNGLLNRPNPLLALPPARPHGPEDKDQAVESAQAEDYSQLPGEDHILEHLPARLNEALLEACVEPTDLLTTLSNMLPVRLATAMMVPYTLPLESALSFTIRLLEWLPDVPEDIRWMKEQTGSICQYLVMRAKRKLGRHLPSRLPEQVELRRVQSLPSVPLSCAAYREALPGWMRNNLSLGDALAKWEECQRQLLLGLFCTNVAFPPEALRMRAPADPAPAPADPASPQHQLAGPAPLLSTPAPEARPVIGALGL

Kd: 3.03 nM
Substance: PEDF (from UniProt P36955)
